Test results as given in patent US20200140568A1 (XUANZHU BIOPHARMACEUTICAL, published 2020).
Changes are numbered by the printed parent chain.

What was measured:
[1] = target: T1, HER2 extracellular domain (human, UniProt P04626 23-652); test: ELISA, HER2 ECD coated on plate; T12 is the weaker comparator
T1 construct: extracellular domain; also called ErbB2; HER2 ECD

[2] = target: T1, HER2 extracellular domain; test: ELISA, HER2 ECD coated on plate

B1: mAb T12 (antibody, V domains shown)
VH: not shown
VL: DIQMTQSPSSLSASVGDRVTITCKASQDVSIGVAWYQQKPGKAPKLLIYSASYRYTGVPSRFSGSGSGTDFTLTISSLQPEDFATYYCQQYYIYPYTFGQGTKVEIKR
B1: binds [1].

B2: mAb T2 (antibody, human IgG1, kappa, V domains shown)
VH: EVQLVESGGGLVQPGGSLRLSCAASGFTFTDYTMDWVRQAPGKGLEWVADVNPNSGGSIYNQRFKGRFTLSVDRSKNTLYLQMNSLRAEDTAVYYCARNLGPSFYFDYWGQGTLVTVSS
VL: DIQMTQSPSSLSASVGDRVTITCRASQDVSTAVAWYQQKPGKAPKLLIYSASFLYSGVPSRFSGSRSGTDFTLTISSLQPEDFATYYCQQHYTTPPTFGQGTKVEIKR
notes: Pertuzumab heavy chain with a mutated trastuzumab light chain
B2: binds [2].

B3: mAb T43 (antibody, V domains shown)
VH: B2 VH with T30A, G57A
VL: DIQMTQSPSSLSASVGDRVTITCRASQDVSTAVAWYQQKPGKAPKLLIYSASFLYYGVPSRFSGSRSGTDFTLTISSLQPEDFATYYCQQHYTWPPTFGQGTKVEIKR
B3: binds [2].

B4: mAb T7 (antibody, human IgG1, kappa, V domains shown)
VH: B2 VH
VL: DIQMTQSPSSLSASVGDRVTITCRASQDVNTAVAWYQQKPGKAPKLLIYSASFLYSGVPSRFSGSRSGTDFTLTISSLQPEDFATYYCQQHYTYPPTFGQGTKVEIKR
notes: as for B2
B4: binds [2].

B5: mAb T5 (antibody, human IgG1, kappa, V domains shown)
VH: B2 VH
VL: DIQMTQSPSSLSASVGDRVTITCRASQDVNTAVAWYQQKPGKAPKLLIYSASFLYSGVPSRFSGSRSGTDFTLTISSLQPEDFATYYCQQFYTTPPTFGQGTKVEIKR
notes: as for B2
B5: binds [2].

B6: mAb T8 (antibody, human IgG1, kappa, V domains shown)
VH: B2 VH
VL: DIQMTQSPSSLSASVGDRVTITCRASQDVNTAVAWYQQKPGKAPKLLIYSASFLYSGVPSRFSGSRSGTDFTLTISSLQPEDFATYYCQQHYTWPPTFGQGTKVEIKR
notes: as for B2
B6: binds [2].

B7: mAb T25 (antibody, V domains shown)
VH: B2 VH with G57A
VL: B1 VL
notes: Residue 56 counted along the entry is also G
B7: binds [2].

B8: mAb T4 (antibody, human IgG1, kappa, V domains shown)
VH: B2 VH
VL: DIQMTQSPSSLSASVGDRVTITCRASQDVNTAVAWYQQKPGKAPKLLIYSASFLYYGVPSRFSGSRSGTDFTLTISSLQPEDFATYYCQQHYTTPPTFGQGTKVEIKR
notes: as for B2
B8: binds [2].

B9: mAb T9 (antibody, human IgG1, kappa, V domains shown)
VH: B2 VH
VL: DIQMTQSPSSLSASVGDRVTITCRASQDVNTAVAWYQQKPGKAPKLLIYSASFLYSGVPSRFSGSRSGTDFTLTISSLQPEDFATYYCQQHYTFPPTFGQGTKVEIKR
notes: as for B2
B9: binds [2].

B10: mAb T3 (antibody, human IgG1, kappa, V domains shown)
VH: B2 VH
VL: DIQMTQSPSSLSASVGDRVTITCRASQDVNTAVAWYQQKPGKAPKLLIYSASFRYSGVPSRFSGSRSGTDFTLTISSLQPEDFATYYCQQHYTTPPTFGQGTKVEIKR
notes: as for B2
B10: binds [2].

B11: mAb T10 (antibody, human IgG1, kappa, V domains shown)
VH: B2 VH
VL: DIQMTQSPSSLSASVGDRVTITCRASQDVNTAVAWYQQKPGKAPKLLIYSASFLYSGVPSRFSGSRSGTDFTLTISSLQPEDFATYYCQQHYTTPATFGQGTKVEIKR
notes: as for B2
B11: binds [2].

B12: mAb T26 (antibody, V domains shown)
VH: B2 VH with T30A, G57A
VL: B1 VL
B12: binds [2].
